How the values were obtained:
TLR2 = target: T1, TLR2 (Mus musculus, UniProt Q9QUN7); assay: TLR2 response in murine cells; format: cell-based
T1 construct: endogenous in cells

p38 MAPK = assay: LPS-induced phospho-p38 MAPK in RAW264.7 cells, immunoblot; format: cell-based, murine; details: peptide 5 μM, 10 ng/ml LPS 5, 30 or 60 min
Experimental: FIGS. 28A and B are immunoblots showing the effect of A464 on LPS-induced appearance of phospho-p38 MAPK in murine RAW264.7. Cells were set up as for FIG. 24 above and 5 μM A467 (SEQ ID NO. 23) or A464 (SEQ ID NO. 20) were added to the wells 1 hour before stimulation. Cells were stimulated with 10 ng/ml LPS for a period of 5, 30 or 60 min, then harvested and lysed. Proteins were resolved by SDS-PAGE, and transferred membranes immunoblotted for phospho-p38 (A) or total p38 (B). The blots shown are representative of two experiments;
RAW264.7 cells were seeded at a density of 1×10^5 cells/ml in 6 well plates. After treatment with peptides and agonists, as described above in relation to the Figs, the medium was removed and the cells were washed once with PBS before scraping them in 100 μl lysis buffer (100 mM NaCl, 50 mM HEPES (pH 7.5), 1 mM EDTA, 0.5% NP-40, 10% Glycerol) and incubating them on ice for 40 min. Samples were spun at 15,000×g for 10min and supernatants collected and stored at −20° C. […] The protein concentration was determined by monitoring the change in the solution absorbance at 280 nm using a spectrophotometer compared to protein standards. […] Thereafter, the membranes were washed, incubated in appropriate secondary antibody and then developed using standard enhanced chemi-luminescence (ECL) reagents. […]

T1 sequence (Q9QUN7 25-784): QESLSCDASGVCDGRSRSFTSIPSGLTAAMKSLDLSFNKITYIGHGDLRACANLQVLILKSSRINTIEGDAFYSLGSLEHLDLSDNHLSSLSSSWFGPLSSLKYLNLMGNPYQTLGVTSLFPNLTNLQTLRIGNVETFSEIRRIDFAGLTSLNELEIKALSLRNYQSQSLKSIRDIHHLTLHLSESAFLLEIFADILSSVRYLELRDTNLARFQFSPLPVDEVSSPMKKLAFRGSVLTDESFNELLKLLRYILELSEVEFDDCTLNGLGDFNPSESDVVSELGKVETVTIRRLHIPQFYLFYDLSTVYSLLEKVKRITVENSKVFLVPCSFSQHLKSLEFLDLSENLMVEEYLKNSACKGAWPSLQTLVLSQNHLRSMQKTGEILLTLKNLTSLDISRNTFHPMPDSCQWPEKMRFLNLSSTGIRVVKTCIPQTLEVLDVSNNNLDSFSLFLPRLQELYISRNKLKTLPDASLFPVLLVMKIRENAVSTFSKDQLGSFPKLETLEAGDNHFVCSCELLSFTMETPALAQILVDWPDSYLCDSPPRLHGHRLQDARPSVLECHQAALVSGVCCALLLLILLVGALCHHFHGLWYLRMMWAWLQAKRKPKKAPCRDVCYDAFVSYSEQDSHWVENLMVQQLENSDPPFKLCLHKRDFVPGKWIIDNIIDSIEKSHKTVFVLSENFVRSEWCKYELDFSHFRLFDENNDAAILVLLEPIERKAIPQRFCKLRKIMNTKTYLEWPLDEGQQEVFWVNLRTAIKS

Sequence: KYSFKLILAEYRRRRRRRRR [Peptide A464]
- effect on TLR2 in murine cells (TLR2): unaffected
- inhibition of LPS-induced p38 phosphorylation (p38 MAPK): very potent inhibition of LPS-induced p38 phosphorylation at all the time points
